Assay results: patent US20190359719A1

Target: c-Met (UniProt P08581)
Assay: Biacore SPR

Chain of c-Met (P08581 25-932): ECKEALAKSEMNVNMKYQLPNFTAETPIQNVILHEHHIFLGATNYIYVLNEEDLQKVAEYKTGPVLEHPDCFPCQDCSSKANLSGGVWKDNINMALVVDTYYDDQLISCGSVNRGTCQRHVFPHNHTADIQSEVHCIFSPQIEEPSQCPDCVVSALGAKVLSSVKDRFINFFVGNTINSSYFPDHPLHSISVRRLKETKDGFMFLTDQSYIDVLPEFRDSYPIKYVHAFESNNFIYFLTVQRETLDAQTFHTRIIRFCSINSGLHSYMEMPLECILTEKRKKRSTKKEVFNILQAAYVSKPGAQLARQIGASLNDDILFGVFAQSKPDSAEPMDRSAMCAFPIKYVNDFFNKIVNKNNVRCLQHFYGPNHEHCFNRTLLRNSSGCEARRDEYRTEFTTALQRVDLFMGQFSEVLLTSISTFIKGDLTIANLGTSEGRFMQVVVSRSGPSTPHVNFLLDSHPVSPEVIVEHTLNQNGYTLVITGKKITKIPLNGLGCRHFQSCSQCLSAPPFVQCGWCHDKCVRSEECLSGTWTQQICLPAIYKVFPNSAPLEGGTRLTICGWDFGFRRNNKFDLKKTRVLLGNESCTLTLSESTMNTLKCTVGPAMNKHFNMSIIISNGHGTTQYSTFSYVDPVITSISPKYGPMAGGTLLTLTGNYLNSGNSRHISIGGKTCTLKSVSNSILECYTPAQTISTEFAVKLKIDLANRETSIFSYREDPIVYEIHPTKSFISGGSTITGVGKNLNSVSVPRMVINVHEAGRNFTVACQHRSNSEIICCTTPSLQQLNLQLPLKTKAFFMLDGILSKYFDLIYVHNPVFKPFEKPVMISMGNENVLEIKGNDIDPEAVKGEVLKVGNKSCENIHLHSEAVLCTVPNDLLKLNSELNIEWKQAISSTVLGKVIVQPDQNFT

Ka: 5.89e+09 M⁻¹
Kd: 0.17 nM
Substance: 5D5
